The source of these data is patent EP4806921A1 (Daan Biotherapeutics, Inc., dated 2026).

For this assay, the target named is T1, CEACAM5 protein (Acrobiosystems) (UniProt P06731 35-685).
T1 construct: also called CEACAM5 full-length protein
T1 sequence (looked up): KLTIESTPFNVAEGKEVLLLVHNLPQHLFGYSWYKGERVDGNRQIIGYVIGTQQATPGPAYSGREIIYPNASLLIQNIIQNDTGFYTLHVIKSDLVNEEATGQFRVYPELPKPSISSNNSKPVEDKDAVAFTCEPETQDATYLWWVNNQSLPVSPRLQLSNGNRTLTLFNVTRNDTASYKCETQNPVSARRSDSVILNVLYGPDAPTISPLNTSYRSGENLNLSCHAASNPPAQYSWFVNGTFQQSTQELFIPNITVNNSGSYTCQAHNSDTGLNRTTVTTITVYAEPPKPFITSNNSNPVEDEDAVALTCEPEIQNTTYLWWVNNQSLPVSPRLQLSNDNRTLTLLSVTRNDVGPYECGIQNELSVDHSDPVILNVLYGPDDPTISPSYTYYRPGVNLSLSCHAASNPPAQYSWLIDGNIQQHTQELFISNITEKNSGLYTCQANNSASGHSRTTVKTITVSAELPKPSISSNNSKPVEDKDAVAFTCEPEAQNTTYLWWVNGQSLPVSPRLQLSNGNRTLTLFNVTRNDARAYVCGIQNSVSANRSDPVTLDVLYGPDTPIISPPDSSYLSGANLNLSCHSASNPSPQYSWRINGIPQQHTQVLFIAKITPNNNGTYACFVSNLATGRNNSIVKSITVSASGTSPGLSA
The experiment in a line: ELISA on coated CEACAM5 protein (Acrobiosystems), antibody 200 nM to 0.0004 nM. (ELISA stands for enzyme-linked immunosorbent assay.)

B1: humanized 94E12E2-04 antibody (antibody, V domains shown)
VH: EVQLVESGGGLVQPGGSLRLSCAASGFNIKDNYMHWVRQAPGKGLEWIGWIDPENGDTEYDPKFQGRATMSADTSKNTAYLQMNSLRAEDTAVYYCNIITMATPYPMDYWGQGTLVTVSS
VL: DIQLTQSPSSLSASVGDRVTITCSASTSVIYMHWFQQKPGKAPKLWIYSTSNLASGVPSRFSGSGSGTDYTLTISSLQPEDFATYYCQQRSSYPLTFGQGTKVEIKR
As for B1, the binding result is reported as “binds”.

B2: humanized 94E12E2-06 antibody (antibody, V domains shown)
VH: QVQLVQSGAEVKKPGASVKVSCKASGFNIKDNYMHWVRQAPGQGLEWIGWIDPENGDTEYDPKFQGRATMTADTSISTAYMELSRLRSDDTAVYYCNIITMATPYPMDYWGQGTLVTVSS
VL: EIVLTQSPDFQSVTPKEKVTITCSASTSVIYMHWFQQKPDQSPKLWIYSTSNLASGVPSRFSGSGSGTDYTLTINSLEAEDAATYYCQQRSSYPLTFGQGTKLEIKR
As for B2, the binding result is on record as “binds”.
